Measured values: US5955073

Target: human transferrin receptor (human) (UniProt P02786)

inhibition of protein synthesis of K562 cells (% inhibition (P1, 0.1 µM)): 99
Substance: 454A12-RNase conjugate (monoclonal antibody 454A12 against the human transferrin receptor coupled to RNase A)
